Measurements as given in PMC10284121 (2023).

Target: Pin1 phosphopeptide (fluorescein-labelled) (Homo sapiens, UniProt Q13526)
Test: fluorescence anisotropy

Chain of Pin1 phosphopeptide (fluorescein-labelled) (Q13526 whole entry): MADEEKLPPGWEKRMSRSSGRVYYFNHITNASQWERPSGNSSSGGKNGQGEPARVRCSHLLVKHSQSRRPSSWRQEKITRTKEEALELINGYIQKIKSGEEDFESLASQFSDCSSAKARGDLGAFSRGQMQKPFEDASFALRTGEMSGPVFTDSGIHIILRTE

B1: 14-3-3γ (protein)
chain: VDREQLVQKARLAEQAERYDDMAAAMKNVTELNEPLSNEERNLLSVAYKNVVGARRSSWRVISSIEQKTSADGNEKKIEMVRAYREKIEKELEAVCQDVLSLLDNYLIKNCSETQYESKVFYLKMKGDYYRYLAEVATGEKRATVVESSEKAYSEAHEISKEHMQPTHPIRLGLALNYSVFYYEIQNAPEQACHLAKTAFDDAIAELDTLNEDSYKDSTLIMQLLRDNLTLWTSDQQDDDGGEGNN
modifications: phosphopeptide, fluorescein label, MG1 present (2-3 h)
  Kd: 1.5 µM

B2: 14-3-3γ (protein)
chain: B1 chain
modifications: phosphopeptide, fluorescein label, MG1 present, pH 6.5
  Kd: ~5.2 µM

B3: 14-3-3γ (protein)
chain: B1 chain
modifications: phosphopeptide, fluorescein label, MG1 present (10 min)
  Kd: 5.4 µM

B4: 14-3-3γ (protein)
chain: B1 chain
modifications: phosphopeptide, fluorescein label
  Kd: 30 µM

B5: 14-3-3γ (protein)
chain: B1 chain
modifications: phosphopeptide, fluorescein label, fusicoccin-A present
  Kd: 2.9 µM

B6: 14-3-3γ (protein)
chain: B1 chain
modifications: phosphopeptide, fluorescein label, MG1 present, pH 8.0
  Kd: ~0.6 µM
